According to US20200062863A1 (CSL BEHRING, published 2020):

Tests used:
Experiment in all cases: Western blot of culture supernatant (non-reducing SDS-PAGE) probed with 3F7 mAb, anti-human IgG-FITC
W420R = target: T1, W420R
T1 construct: also called Mu-FXII W420R mutant with C-terminal 8xHis-tag; mutant d)
T1 single chain: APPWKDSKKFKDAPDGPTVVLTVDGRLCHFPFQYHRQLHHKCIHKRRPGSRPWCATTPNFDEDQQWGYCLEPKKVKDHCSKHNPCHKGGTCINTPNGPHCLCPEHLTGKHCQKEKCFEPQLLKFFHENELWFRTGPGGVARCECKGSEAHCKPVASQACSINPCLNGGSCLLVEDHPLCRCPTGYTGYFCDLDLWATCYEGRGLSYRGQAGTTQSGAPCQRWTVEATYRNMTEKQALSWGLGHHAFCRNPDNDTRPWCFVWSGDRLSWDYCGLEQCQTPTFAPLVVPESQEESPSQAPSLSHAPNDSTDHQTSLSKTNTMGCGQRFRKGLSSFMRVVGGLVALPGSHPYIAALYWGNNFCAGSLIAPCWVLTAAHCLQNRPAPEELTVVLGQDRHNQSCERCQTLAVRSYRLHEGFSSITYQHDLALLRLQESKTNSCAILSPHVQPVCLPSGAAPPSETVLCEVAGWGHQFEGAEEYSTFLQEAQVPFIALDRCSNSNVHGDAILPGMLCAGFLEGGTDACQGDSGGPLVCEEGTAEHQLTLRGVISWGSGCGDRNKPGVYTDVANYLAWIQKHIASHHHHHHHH
Experimental: (§1) Proteins were then transferred electrophoretically onto nitrocellulose filters and blocked for 1 hour in 5% Milk powder in Tris-buffered saline with 0.05% Tween-20 (TTBS). Filters were then incubated for 1 hour with either 3F7 mAb or an anti-His mAb 3H3 (both at […] in TTBS with 5% Milk powder), washed thoroughly with TTBS, then incubated for a further hour with anti-human IgG-FITC or anti-mouse IgG-FITC, respectively (Millipore, USA; both at 0.25 mg/ml in TTBS with 5% Milk powder). Following further washing of membranes in TTBS, Ab-FITC bound proteins were visualized using a Typhoon variable mode analyzer (GE Healthcare, USA).

R427H = target: T2, R427H
T2 construct: also called Mu-FXII R427H mutant with C-terminal 8xHis-tag; mutant e)
T2 single chain: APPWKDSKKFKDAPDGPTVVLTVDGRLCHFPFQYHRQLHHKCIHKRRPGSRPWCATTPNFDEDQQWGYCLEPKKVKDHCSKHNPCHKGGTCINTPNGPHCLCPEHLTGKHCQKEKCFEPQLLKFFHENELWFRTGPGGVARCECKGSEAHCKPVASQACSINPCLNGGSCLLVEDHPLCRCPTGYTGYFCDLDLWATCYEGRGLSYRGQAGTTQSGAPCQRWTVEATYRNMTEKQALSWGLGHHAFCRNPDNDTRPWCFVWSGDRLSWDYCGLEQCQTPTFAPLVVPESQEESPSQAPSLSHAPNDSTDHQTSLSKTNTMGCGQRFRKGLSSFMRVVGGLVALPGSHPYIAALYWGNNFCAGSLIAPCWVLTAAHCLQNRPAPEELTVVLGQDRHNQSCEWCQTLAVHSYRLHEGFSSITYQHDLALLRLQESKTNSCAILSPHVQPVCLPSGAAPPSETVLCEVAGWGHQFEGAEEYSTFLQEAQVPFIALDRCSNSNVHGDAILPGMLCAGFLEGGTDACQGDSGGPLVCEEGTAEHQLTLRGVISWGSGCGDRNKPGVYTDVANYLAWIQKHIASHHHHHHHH
Experimental: as §1

A589D = target: T3, A589D
T3 construct: also called Mu-FXII A589D mutant with C-terminal 8xHis-tag; mutant n)
T3 single chain: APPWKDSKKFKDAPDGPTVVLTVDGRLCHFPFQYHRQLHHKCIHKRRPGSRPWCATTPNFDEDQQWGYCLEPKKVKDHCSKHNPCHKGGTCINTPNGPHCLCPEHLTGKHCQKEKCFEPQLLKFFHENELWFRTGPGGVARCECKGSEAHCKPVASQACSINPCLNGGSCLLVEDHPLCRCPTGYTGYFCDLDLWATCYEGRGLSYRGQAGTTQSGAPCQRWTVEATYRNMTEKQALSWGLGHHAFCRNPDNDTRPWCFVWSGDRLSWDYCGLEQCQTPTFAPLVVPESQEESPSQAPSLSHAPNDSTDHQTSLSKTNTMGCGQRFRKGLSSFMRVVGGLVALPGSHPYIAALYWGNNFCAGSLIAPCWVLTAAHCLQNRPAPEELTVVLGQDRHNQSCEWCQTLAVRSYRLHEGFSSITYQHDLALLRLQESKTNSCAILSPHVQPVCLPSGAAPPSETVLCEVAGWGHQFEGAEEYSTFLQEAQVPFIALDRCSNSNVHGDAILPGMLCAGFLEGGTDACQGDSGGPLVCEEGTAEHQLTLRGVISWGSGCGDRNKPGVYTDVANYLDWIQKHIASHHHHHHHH
Experimental: as §1

T538A = target: T4, T538A
T4 construct: also called Mu-FXII T538A mutant with C-terminal 8xHis-tag; mutant m)
T4 single chain: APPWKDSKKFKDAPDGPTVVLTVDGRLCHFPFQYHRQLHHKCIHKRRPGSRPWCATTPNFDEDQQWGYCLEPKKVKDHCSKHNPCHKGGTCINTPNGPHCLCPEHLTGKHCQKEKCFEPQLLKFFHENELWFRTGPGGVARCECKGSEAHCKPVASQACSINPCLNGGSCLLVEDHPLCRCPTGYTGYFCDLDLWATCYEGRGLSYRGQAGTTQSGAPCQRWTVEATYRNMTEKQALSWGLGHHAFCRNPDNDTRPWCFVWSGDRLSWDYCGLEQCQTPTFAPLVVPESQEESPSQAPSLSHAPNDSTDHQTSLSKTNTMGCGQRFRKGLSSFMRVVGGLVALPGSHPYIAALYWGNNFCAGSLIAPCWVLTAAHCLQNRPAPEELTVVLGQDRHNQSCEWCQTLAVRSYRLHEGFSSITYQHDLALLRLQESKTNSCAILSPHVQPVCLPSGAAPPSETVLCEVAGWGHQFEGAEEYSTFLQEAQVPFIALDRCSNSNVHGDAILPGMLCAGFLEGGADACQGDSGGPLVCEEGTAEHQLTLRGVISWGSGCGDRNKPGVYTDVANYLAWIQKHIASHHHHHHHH
Experimental: as §1

Measured: binding result

B1: monoclonal antibody 3F7 (fully human IgG4/lambda) (antibody, V domains shown)
VH: EVQLLESGGGLVQPGGSLRLSCAASGFTFSKYIMQWVRQAPGKGLEWVSGIRPSGGTTVYADSVKGRFTISRDNSKNTLYLQMNSLRAEDTAVYYCARALPRSGYLISPHYYYYALDVWGQGTTVTVSS
VL: QSELTQPPSASGTPGQRVTISCSGSSSNIGRNYVYWYQQVPGTAPKLLIYSNNQRPSGVPDRFSGSKSGTSASLVISGLRSEDEADYYCAAWDASLRGVFGGGTKLTVLG
notes: also called 3F7 mAb; MAb 3F7
binds: all assays above
